Data on one molecule can be found in paper PMC10364586 (Protein Science : A Publication of the Protein Society, 2023).

Where “and” joins values, the source holds several entries; their conditions need not be identical. Equal values may be shown once.

In experiment [1] the target is T1, PADI4 (peptidyl-arginine deiminase 4), recombinant, dimeric (human, UniProt Q9UM07 1-663). Description: ITC.
Experiment [2] deals with T1, PADI4 (peptidyl-arginine deiminase 4), …. As to the kind of experiment: other fluorescence titration.

T1 sequence (Q9UM07 whole entry): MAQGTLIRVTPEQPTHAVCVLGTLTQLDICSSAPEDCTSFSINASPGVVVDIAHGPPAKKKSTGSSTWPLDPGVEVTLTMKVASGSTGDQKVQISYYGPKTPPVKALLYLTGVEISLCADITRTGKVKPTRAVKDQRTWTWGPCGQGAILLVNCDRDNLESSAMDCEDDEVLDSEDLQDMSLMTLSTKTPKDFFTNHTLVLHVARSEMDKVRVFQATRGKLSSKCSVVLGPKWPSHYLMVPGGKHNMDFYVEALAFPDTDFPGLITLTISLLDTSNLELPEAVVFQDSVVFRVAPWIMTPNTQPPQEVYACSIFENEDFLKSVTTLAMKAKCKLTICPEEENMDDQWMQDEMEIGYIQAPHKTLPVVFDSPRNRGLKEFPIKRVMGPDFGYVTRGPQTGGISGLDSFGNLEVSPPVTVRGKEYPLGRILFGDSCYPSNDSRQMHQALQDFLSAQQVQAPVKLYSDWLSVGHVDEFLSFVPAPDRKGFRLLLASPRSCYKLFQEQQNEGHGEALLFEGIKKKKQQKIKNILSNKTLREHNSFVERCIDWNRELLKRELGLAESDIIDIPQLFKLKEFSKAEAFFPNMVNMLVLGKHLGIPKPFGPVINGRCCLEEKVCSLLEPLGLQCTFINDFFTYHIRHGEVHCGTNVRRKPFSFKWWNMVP

B1: His-tagged N-MDM2 (N-terminal region of MDM2, residues 6-125 of the intact protein) (domain or fragment, UniProt Q00987 6-125, looked up)
chain: MSVPTDGAVTTSQIPASEQETLVRPKPLLLKLLKSVGAQKDTYTMKEVLFYLGQYIMTKRLYDEKQQHIVYCSNDLLGDLFGVPSFSVKEHRKIYTMIYRNLVVVNQQESSDSGTSVSEN
modifications: 15N-labelled in the NMR experiment only
As to B1, the Kd in experiment [1] is 1000 ± 200 nM; in experiment [2], 5 µM and ~6 µM.

As a reminder, the Kd is the equilibrium constant for the complex coming apart.
